Measurements taken from publication PMC7144918.

Biological target: Ku70/80 heterodimer (Ku) (UniProt P12956;P13010 1-609;1-732)
Experiment: EMSA

Sequence of Ku70/80 heterodimer (Ku) (P12956 whole entry, chain 1 of 2): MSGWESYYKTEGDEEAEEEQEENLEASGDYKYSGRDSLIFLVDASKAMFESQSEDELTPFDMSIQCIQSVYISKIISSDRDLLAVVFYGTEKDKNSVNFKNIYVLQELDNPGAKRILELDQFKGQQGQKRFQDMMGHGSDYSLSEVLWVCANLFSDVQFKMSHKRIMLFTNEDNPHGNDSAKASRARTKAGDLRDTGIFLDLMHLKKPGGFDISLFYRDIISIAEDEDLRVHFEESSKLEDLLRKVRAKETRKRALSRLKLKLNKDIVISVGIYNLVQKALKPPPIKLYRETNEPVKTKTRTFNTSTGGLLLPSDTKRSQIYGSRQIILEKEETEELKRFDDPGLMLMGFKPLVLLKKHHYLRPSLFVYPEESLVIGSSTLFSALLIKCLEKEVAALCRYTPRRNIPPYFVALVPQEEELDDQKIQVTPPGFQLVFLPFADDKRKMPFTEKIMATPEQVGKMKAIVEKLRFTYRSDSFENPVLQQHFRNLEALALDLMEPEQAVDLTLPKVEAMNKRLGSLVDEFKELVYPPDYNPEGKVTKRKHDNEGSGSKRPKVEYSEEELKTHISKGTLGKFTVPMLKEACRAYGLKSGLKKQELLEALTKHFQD
Sequence of Ku70/80 heterodimer (Ku) (P13010 whole entry, chain 2 of 2): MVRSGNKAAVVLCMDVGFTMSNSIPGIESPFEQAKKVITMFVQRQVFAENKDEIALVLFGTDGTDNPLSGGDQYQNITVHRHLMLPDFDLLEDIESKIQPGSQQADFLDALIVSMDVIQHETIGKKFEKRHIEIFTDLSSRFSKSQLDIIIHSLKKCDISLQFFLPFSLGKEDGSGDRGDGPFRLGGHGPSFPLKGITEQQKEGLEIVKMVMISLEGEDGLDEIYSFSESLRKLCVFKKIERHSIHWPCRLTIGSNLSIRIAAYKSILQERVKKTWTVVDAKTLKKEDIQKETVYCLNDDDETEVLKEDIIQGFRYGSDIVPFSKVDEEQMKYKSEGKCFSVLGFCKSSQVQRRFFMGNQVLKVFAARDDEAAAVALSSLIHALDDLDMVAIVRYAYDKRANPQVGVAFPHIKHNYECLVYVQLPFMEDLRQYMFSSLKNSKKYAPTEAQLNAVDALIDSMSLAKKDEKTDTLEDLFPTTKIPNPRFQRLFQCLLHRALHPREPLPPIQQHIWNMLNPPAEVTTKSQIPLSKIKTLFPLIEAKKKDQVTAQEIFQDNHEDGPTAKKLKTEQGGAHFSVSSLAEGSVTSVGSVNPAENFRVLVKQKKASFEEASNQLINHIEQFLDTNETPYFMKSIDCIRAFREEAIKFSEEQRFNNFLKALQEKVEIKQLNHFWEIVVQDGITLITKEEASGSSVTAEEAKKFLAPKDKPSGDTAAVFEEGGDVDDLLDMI

Binder | Kd [nM]
BZ57/BZ109 25 bp Cy3 duplex (dsDNA, internal Cy3 in backbone after nt 4 of each strand) DNA 1: GATGCCTCCAAGGTCGACGATGCAG DNA 2: CTGCATCGTCGACCTTGGAGGCATC | 0.11
BZ91/BZ107 25 bp duplex (dsDNA) DNA 1: GATGCCTCCAAGGTCGACGATGCAG DNA 2: CTGCATCGTCGACCTTGGAGGCATC | 0.086
